According to patent US20060024289:

What was measured:
[1] = test system: extracellular domain of VEGF-R2 (Flk1) fused to the Fc domain of mouse IgG
Ac-RRVR-AMC = test system: T1, Ac-RRVR-AMC
T1 sequence: RRVR

Ac-IEFD-AMC [2] = molecular target: T2, Ac-IEFD-AMC; assay: Michaelis-Menten kinetics of fluorogenic tetrapeptide hydrolysis
T2 chain: XIEFDX

Ac-IEPD-AMC [3] = molecular target: T3, Ac-IEPD-AMC; assay: as above
T3 chain: XIEPDX

Ac-IEFD-AMC [4] = molecular target: T2, Ac-IEFD-AMC
Ac-IEPD-AMC [5] = molecular target: T3, Ac-IEPD-AMC
Ac-IKPD-AMC [6] = molecular target: T4, Ac-IKPD-AMC; assay: Michaelis-Menten kinetics of fluorogenic tetrapeptide hydrolysis
T4 chain: XIKPDX

Ac-IKPD-AMC [7] = molecular target: T4, Ac-IKPD-AMC
Ac-IAPD-ACC = molecular target: T5, Ac-IAPD-ACC
T5 chain: XIAPDX

Ac-IETD-AMC [8] = molecular target: T6, Ac-IETD-AMC; assay: Michaelis-Menten kinetics of fluorogenic tetrapeptide hydrolysis
T6 chain: XIETDX

Ac-LEPD-AMC = molecular target: T7, Ac-LEPD-AMC
T7 chain: XLEPDX

Ac-IETD-AMC [9] = molecular target: T6, Ac-IETD-AMC

Sequence of extracellular domain of VEGF-R2 (Flk1) fused to the Fc domain of mouse IgG (chain, as listed by the source): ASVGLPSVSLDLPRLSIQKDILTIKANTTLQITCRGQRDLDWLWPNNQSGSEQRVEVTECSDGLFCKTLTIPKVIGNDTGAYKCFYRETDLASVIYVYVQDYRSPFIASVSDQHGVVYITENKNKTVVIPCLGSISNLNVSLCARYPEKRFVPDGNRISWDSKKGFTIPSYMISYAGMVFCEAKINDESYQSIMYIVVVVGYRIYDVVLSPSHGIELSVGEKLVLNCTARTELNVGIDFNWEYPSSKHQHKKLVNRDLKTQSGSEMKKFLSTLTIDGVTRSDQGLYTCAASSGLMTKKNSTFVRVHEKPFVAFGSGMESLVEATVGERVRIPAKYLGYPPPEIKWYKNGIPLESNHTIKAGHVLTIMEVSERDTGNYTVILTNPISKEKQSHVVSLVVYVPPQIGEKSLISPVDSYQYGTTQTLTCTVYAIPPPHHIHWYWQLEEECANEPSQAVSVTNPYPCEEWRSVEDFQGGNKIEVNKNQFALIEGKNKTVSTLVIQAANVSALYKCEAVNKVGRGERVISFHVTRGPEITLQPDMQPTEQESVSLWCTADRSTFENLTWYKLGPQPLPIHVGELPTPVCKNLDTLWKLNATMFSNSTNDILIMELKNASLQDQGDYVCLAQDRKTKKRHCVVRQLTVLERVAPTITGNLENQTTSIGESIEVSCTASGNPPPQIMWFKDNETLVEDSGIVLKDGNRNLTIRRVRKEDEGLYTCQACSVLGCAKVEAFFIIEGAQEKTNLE

MT-SP1 mutein CB18 (L172D) was tested, and the “cleavage of purified VEGFR2-Fc (SDS-PAGE)” value (“cleavage … (SDS-PAGE)” below) [1] was “The mutant L172D cleaves full-length VEGFR2 but at a reduced rate compared to the wild-type”.

For MT-SP1 mutant N175D, the “cleavage … (SDS-PAGE)” value [1] was “Several mutants (N175D and D217F) cleave the receptor with higher efficiency than wild-type”.

In the case of “granzyme B mutein CB07 (I99A/N218A/Y174D)”, the “cleavage … (SDS-PAGE)” value [1] is reported as “The purified VEGFR2-Fc is efficiently cleaved by wild-type and mutant granzyme B ... None of the protease variants (wild-type or mutant) cleave the Fc domain” and the “in vitro cleavage of soluble Flk1-Fc (gel, FIG. 10)” value (“in vitro cleavage” below) [1] is reported as “Wild-type granzyme B and the listed muteins cleave the VEGFR-Fc receptor”.

“granzyme B mutein CB06 (I99A/N218A/Y174E)” was tested, and the “cleavage … (SDS-PAGE)” value [1] was “The purified VEGFR2-Fc is efficiently cleaved by wild-type and mutant granzyme B ... None of the protease variants (wild-type or mutant) cleave the Fc domain” and the “in vitro cleavage” value [1] was “Wild-type granzyme B and the listed muteins cleave the VEGFR-Fc receptor”.

For MT-SP1 mutein CB155 (Y146D/K224F), the “kcat/Km (specificity constant)” value (Ac-RRVR-AMC) was “cut the Ac-RRVR-AMC substrate at 2.2 and 2.3×10^5 M^-1s^-1, respectively”.

With MT-SP1 mutein CB159 (F99I/L172D/Q175D) the “kcat/Km (specificity constant)” value (Ac-RRVR-AMC) was “cut the Ac-RRVR-AMC substrate at 2.2 and 2.3×10^5 M^-1s^-1, respectively” and the “preference of RRVR over RQAR substrate (ratio of kcat/Km)” value (Ac-RRVR-AMC) was “prefer RRVR to RQAR by greater than 8 fold”.

In the case of “granzyme B mutein CB05 (I99A/N218A/K172D)”, the “cleavage … (SDS-PAGE)” value [1] is reported as “The purified VEGFR2-Fc is efficiently cleaved by wild-type and mutant granzyme B ... None of the protease variants (wild-type or mutant) cleave the Fc domain” and the “in vitro cleavage” value [1] is reported as “Wild-type granzyme B and the listed muteins cleave the VEGFR-Fc receptor”.

In the case of MT-SP1 mutant D217F, the “cleavage … (SDS-PAGE)” value [1] is reported as “Several mutants (N175D and D217F) cleave the receptor with higher efficiency than wild-type”.

“granzyme B mutein CB02 (I99A/N218A/L171E)” was tested, and the “cleavage … (SDS-PAGE)” value [1] was “The purified VEGFR2-Fc is efficiently cleaved by wild-type and mutant granzyme B ... None of the protease variants (wild-type or mutant) cleave the Fc domain” and the “in vitro cleavage” value [1] was “Wild-type granzyme B and the listed muteins cleave the VEGFR-Fc receptor”.

In the case of “granzyme B mutein CB10 (I99A/N218A/R192M)”, the “cleavage … (SDS-PAGE)” value [1] is reported as “The purified VEGFR2-Fc is efficiently cleaved by wild-type and mutant granzyme B ... None of the protease variants (wild-type or mutant) cleave the Fc domain” and the “in vitro cleavage” value [1] is reported as “Wild-type granzyme B and the listed muteins cleave the VEGFR-Fc receptor”.

B1: rat granzyme B I99A (protein)
chain: IIGGHEAKPHSRPYMAYLQIMDEYSGSKKCGGFLIREDFVLTAAHCSGSKINVTLGAHNIKEQEKMQQIIPVVKIIPHPAYNSKTASNDIMLLKLKSKAKRSSAVKPLNLPRRNVKVKPGDVCYVAGWGKLGPMGKYSDTLQEVELTVQEDQKCESYLKNYFDKANEICAGDPKIKRASFRGDSGGPLVCKKVAAGIVSYGQNDGSTPRAFTKVSTFLSWIKKTMKKS
Work on B1 yielded a Km (Ac-IEFD-AMC [2]) of 880 µM, a Km (Ac-IEPD-AMC [3]) of 2500 µM and a kcat (Ac-IEFD-AMC [4]) of 0.24 s⁻¹. It also gave a kcat/Km (Ac-IEFD-AMC [4]) of 270 M⁻¹ s⁻¹, a kcat (Ac-IEPD-AMC [5]) of 0.14 s⁻¹ and a kcat/Km (Ac-IEPD-AMC [5]) of 57 M⁻¹ s⁻¹.

B2: rat granzyme B N218T (protein)
chain: IIGGHEAKPHSRPYMAYLQIMDEYSGSKKCGGFLIREDFVLTAAHCSGSKINVTLGAHNIKEQEKMQQIIPVVKIIPHPAYNSKTISNDIMLLKLKSKAKRSSAVKPLNLPRRNVKVKPGDVCYVAGWGKLGPMGKYSDTLQEVELTVQEDQKCESYLKNYFDKANEICAGDPKIKRASFRGDSGGPLVCKKVAAGIVSYGQTDGSTPRAFTKVSTFLSWIKKTMKKS
For B2, the Km (Ac-IKPD-AMC [6]) was 1800 µM, the Km (Ac-IEPD-AMC [3]) was 580 µM and the Kcat (Ac-IKPD-AMC [7]) was 1.1 s⁻¹. The Kcat/Km (Ac-IKPD-AMC [7]) was 600 M⁻¹ s⁻¹, the Kcat (Ac-IEPD-AMC [5]) was 3.6 s⁻¹ and the Kcat/Km (Ac-IEPD-AMC [5]) was 6200 M⁻¹ s⁻¹.

B3: rat granzyme B N218A/R192E (protein)
chain: IIGGHEAKPHSRPYMAYLQIMDEYSGSKKCGGFLIREDFVLTAAHCSGSKINVTLGAHNIKEQEKMQQIIPVVKIIPHPAYNSKTISNDIMLLKLKSKAKRSSAVKPLNLPRRNVKVKPGDVCYVAGWGKLGPMGKYSDTLQEVELTVQEDQKCESYLKNYFDKANEICAGDPKIKRASFEGDSGGPLVCKKVAAGIVSYGQADGSTPRAFTKVSTFLSWIKKTMKKS
In the case of B3, the Km (Ac-IKPD-AMC [6]) is reported as > 2000 µM, the Km (Ac-IEPD-AMC [3]) is reported as > 2000 µM and the Kcat/Km (Ac-IKPD-AMC [7]) is reported as 73 M⁻¹ s⁻¹. For the same molecule, the Kcat/Km (Ac-IAPD-ACC) was 15 M⁻¹ s⁻¹ and the Kcat/Km (Ac-IEPD-AMC [5]) was 10 M⁻¹ s⁻¹.

B4: rat granzyme B N218A/R192A (protein)
chain: IIGGHEAKPHSRPYMAYLQIMDEYSGSKKCGGFLIREDFVLTAAHCSGSKINVTLGAHNIKEQEKMQQIIPVVKIIPHPAYNSKTISNDIMLLKLKSKAKRSSAVKPLNLPRRNVKVKPGDVCYVAGWGKLGPMGKYSDTLQEVELTVQEDQKCESYLKNYFDKANEICAGDPKIKRASFAGDSGGPLVCKKVAAGIVSYGQADGSTPRAFTKVSTFLSWIKKTMKKS
For B4, the Km (Ac-IKPD-AMC [6]) was > 2000 µM, the Km (Ac-IEPD-AMC [3]) was 1700 µM and the Kcat/Km (Ac-IKPD-AMC [7]) was 55 M⁻¹ s⁻¹. The Kcat/Km (Ac-IAPD-ACC) was 29 M⁻¹ s⁻¹, the Kcat (Ac-IEPD-AMC [5]) was 0.16 s⁻¹ and the Kcat/Km (Ac-IEPD-AMC [5]) was 92 M⁻¹ s⁻¹.

B5: rat granzyme B I99R (protein)
chain: IIGGHEAKPHSRPYMAYLQIMDEYSGSKKCGGFLIREDFVLTAAHCSGSKINVTLGAHNIKEQEKMQQIIPVVKIIPHPAYNSKTRSNDIMLLKLKSKAKRSSAVKPLNLPRRNVKVKPGDVCYVAGWGKLGPMGKYSDTLQEVELTVQEDQKCESYLKNYFDKANEICAGDPKIKRASFRGDSGGPLVCKKVAAGIVSYGQNDGSTPRAFTKVSTFLSWIKKTMKKS
For B5, the Km (Ac-IEFD-AMC [2]) was 930 µM and The Km of the P2-Phe substrate (980 µM), the Km (Ac-IETD-AMC [8]) was 2000 µM and the Km (Ac-IEPD-AMC [3]) was 1800 µM. For the same molecule, the Kcat (Ac-IEFD-AMC [4]) was 0.47 s⁻¹, the Kcat/Km (Ac-IEFD-AMC [4]) was 505 M⁻¹ s⁻¹ and the Kcat/Km (Ac-LEPD-AMC) was 12 M⁻¹ s⁻¹. It also gave a Kcat (Ac-IETD-AMC [9]) of 0.3 s⁻¹, a Kcat/Km (Ac-IETD-AMC [9]) of 150 M⁻¹ s⁻¹ and a Kcat (Ac-IEPD-AMC [5]) of 0.59 s⁻¹. The Kcat/Km (Ac-IEPD-AMC [5]) was 330 M⁻¹ s⁻¹ and the kcat (Ac-IEPD-AMC [5]) was “kcat is 0.47 s^-1 and 0.55 s^-1, respectively”.

B6: rat granzyme B N218A (protein)
chain: IIGGHEAKPHSRPYMAYLQIMDEYSGSKKCGGFLIREDFVLTAAHCSGSKINVTLGAHNIKEQEKMQQIIPVVKIIPHPAYNSKTISNDIMLLKLKSKAKRSSAVKPLNLPRRNVKVKPGDVCYVAGWGKLGPMGKYSDTLQEVELTVQEDQKCESYLKNYFDKANEICAGDPKIKRASFRGDSGGPLVCKKVAAGIVSYGQADGSTPRAFTKVSTFLSWIKKTMKKS
With B6 the Km (Ac-IKPD-AMC [6]) was 1800 µM, the Km (Ac-IEPD-AMC [3]) was 700 µM and the kcat (Ac-IKPD-AMC [7]) was 0.38 s⁻¹. For the same molecule, the kcat/Km (Ac-IKPD-AMC [7]) was 220 M⁻¹ s⁻¹, the kcat (Ac-IEPD-AMC [5]) was 1.6 s⁻¹ and the kcat/Km (Ac-IEPD-AMC [5]) was 2200 M⁻¹ s⁻¹.

B7: rat granzyme B Y174A (protein)
chain: IIGGHEAKPHSRPYMAYLQIMDEYSGSKKCGGFLIREDFVLTAAHCSGSKINVTLGAHNIKEQEKMQQIIPVVKIIPHPAYNSKTISNDIMLLKLKSKAKRSSAVKPLNLPRRNVKVKPGDVCYVAGWGKLGPMGKYSDTLQEVELTVQEDQKCESYLKNAFDKANEICAGDPKIKRASFRGDSGGPLVCKKVAAGIVSYGQNDGSTPRAFTKVSTFLSWIKKTMKKS
Work on B7 yielded a Km (Ac-IEPD-AMC [3]) of 1000 µM, a kcat (Ac-IEPD-AMC [5]) of 0.87 s⁻¹ and a kcat/Km (Ac-IEPD-AMC [5]) of 470 M⁻¹ s⁻¹.

B8: rat granzyme B I99F (protein)
chain: IIGGHEAKPHSRPYMAYLQIMDEYSGSKKCGGFLIREDFVLTAAHCSGSKINVTLGAHNIKEQEKMQQIIPVVKIIPHPAYNSKTFSNDIMLLKLKSKAKRSSAVKPLNLPRRNVKVKPGDVCYVAGWGKLGPMGKYSDTLQEVELTVQEDQKCESYLKNYFDKANEICAGDPKIKRASFRGDSGGPLVCKKVAAGIVSYGQNDGSTPRAFTKVSTFLSWIKKTMKKS
B8 showed a Km (Ac-IETD-AMC [8]) of 1900 µM, a Km (Ac-IEPD-AMC [3]) of 500 µM and a Kcat/Km (Ac-IEFD-AMC [4]) of 410 M⁻¹ s⁻¹. It also gave a Kcat/Km (Ac-LEPD-AMC) of 200 M⁻¹ s⁻¹, a Kcat (Ac-IETD-AMC [9]) of 0.3 s⁻¹ and a Kcat/Km (Ac-IETD-AMC [9]) of 153 M⁻¹ s⁻¹. For the same molecule, the Kcat (Ac-IEPD-AMC [5]) was 0.56 s⁻¹, the Kcat/Km (Ac-IEPD-AMC [5]) was 510 M⁻¹ s⁻¹ and the “specificity constant (kcat/Km)” value (Ac-IEPD-AMC [5]) was 1100 M⁻¹ s⁻¹.
